Data: US20090263864A1 (CRUCELL HOLLAND B V, published 2009)

Target: T1, CD46 on human coloncarcinoma LS174T cells (human, UniProt P15529 35-392)
T1 construct: whole, on cells
T1 sequence (looked up): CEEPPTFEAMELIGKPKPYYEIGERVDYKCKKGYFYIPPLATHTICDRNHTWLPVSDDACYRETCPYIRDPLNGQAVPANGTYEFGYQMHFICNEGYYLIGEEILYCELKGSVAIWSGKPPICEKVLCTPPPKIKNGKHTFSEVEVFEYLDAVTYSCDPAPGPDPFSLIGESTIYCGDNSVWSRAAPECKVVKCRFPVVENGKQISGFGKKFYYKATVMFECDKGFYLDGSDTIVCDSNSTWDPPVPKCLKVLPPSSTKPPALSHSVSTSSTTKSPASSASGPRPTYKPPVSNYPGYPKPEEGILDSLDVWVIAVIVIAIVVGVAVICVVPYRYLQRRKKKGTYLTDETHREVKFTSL
Experiment: FACS on LS174T cells preincubated with normal human serum; biotinylated antibody, streptavidin-PE; MFI
Experimental: Binding (MFI, ordinate) was determined by FACS after incubation with streptavidin-conjugated phycoerythrin.

- EC50 (read off the curve): ~3 µg/mL
B1: K53 IgG (antibody, V domains shown)
VH: QVQLVQSGAEVKKPGASVKVSCKASGYTFTSYGISWVRQAPGQGLEWMGWISAYNGNTNYAQKLQGRVTMTTDTSTSTAYMELRSLRSDDTAVYYCARGMMRGVFDYWGQGTLVTVST
VL: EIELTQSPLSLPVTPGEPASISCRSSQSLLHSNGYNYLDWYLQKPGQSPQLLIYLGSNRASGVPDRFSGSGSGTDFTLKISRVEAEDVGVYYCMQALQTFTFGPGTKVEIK
notes: also called clone K53; anti-CD46 clone K53
